{
  "source": "paper PMC10483697",
  "target": "truncated HsDNPH1 (Homo sapiens 2′-deoxynucleoside 5′-phosphate N-hydrolase 1) (human) (UniProt O43598)",
  "test": "crystal structure; HsDNPH1^Trunc at 8 mg/mL in 30 mM Tris-HCl pH 7.5, 150 mM NaCl, hanging drop, 20 °C, reservoir pH 4.0 with 20% PEG 1500; unliganded crystals and crystals soaked with 50 mM dUMP",
  "data": [
    {"substance": "truncated HsDNPH1 (Homo sapiens 2′-deoxynucleoside 5′-phosphate N-hydrolase 1) (from UniProt O43598 20-162) (enzyme)", "values": [
      {"measurement": "stoichiometry N", "value": 2}
    ]}
  ]
}
